Results reported in US20170051058A1 (UNIVERSITAET DUISBURG ESSEN, published 2017).

T1: CEACAM1 (human, UniProt P13688 35-526, limits assumed)
T1 construct: also called entire CEACAM1; CD66a
T1 sequence: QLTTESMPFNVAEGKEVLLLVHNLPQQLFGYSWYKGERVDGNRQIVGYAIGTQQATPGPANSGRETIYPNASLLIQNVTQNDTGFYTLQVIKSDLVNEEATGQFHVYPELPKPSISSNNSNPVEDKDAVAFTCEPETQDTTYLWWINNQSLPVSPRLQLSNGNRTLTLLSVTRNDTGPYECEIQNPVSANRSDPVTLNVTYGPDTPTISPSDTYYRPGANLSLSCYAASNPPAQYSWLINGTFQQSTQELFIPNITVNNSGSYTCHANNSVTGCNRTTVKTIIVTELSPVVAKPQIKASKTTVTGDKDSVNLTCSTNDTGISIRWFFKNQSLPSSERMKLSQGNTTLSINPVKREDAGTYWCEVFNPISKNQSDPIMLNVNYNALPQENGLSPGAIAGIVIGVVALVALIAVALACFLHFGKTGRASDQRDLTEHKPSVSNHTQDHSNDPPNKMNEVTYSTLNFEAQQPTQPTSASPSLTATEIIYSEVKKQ


Key:
[1] = target: CEACAM1 on human CD8+ T cells from the blood of healthy donors (human) (UniProt P13688); assay: flow cytometry on human PBMCs, gated on CD8+ T cells, anti-mouse IgG-APC
CEACAM1 [2] = target: T1, CEACAM1; assay: sandwich ELISA, CEACAM1 from CHO transfectants captured by anti-CEA, detection with anti-mouse Ig-HRP
Method: Sandwich ELISA was coated with 0.25 μg/100 microL/well of anti-CEA (Dako). ELISA was washed and remaining binding sites blocked. Subsequently, CEACAM1 or CEACAM1deltaN (therefore CEACAM1 without N-domain, CEACAM1dN) was added thereto. CEACAM1 and CEACAM1deltaN were obtained from CHO transfectants. The ELISA was then incubated with differing antibodies. After 4 hours of incubation, the ELISA was washed and incubated with anti-mouse Ig-HRP. After 1 hour, the substrate TMB was added and the absorption measured at 450 nm.

[3] = target: CEACAM1 without N-domain (human) (UniProt P13688); assay: sandwich ELISA, CEACAM1dN from CHO transfectants captured by anti-CEA, detection with anti-mouse Ig-HRP
CEACAM1 [4] = target: T1, CEACAM1; assay: method not stated

| Molecule | mean fluorescence intensity [1] [MFI] | absorption at 450 nm (mean) (CEACAM1 [2]) [absorption at 450 nm] | absorption at 450 nm (mean) (absorption at 450 nm) [3] | Kd (CEACAM1 [4]) [nM] |
| --- | --- | --- | --- | --- |
| isotype control (antibody) | 436 |  |  |  |
| anti-human CEACAM1 antibody (clone B3-17) (antibody, V domains shown, Mouse monoclonal antibody from a hybridoma; also called antibody B3-17; mAB, B3-17) VH: GPELVKPGTSVKMSCKASGYTFTTYVMHWVQQKPGQGLDWIGFFNPYNDGTKYNEKFKGKATLTSDKSSSTAYMELSSLTSEDSAVYYCARWAYDGSYAYWGQGTTLTVSS VL: SYLSVFLGGRVTITCKASDHINNWLAWYQQKPGNAPRLLISGATSLETGVPSRFSGSGSGKDYTLSIISLQTEDVATYYCQQYWRTPFTFGSGTKLEIK |  | 0.62 | 0.91 | 10 |
| anti-human CEACAM1 antibody (clone 18-20) (antibody, V domains shown, Mouse monoclonal antibody from a hybridoma; also called antibody 18-20) VH: KPGETVKISCKASGYTFTVYGMNWVKQAPGKDLKWMGWINTYTGEPTYADDFKGRFAFSLETSASTAYLQINNLKNEDMATYFCARKAFYRYDGGMDYWGQGTSVTVSS VL: SSLSASLGGKVTITCKASQDINKFLAWYQHKPGKGPRLLIHYTSTLQPGIPSRFSGSGSGRDYSFSISNLEPEDIATYYCLQYDNLYTFGGGTKLEIK |  | 1.3 | 0.053 | 26 |
| anti-human CEACAM1 antibody (clone 6G5J) (antibody, V domains shown, Mouse monoclonal antibody from a hybridoma; also called antibody 6G5J) VH: KPGETVKISCKTSGYIFRNYGMKWVKQAPGKGLKWMGWINTYTGEPTYADDFKGRFAFSLETSASTAYLQINNLKNEDMATYFCARRGMITTSNYALDNWGQGTSVTVSS VL: SSLSASLGDRVTISCRASQDISNYLNWYQQKPDGTIKLLIYYTSKLHSGVPSRFSGSGSGTDYSLTISNLDQEDIATYFCQQGNTLPWTFGGGTKLEIK |  | 1.09 | 0.066 | 23 |
